One block for each binder: values may come before it.
Experiments:
huIL-17RA-FLAG-polyHis = biological target: T1, huIL-17RA-FLAG-polyHis (human, UniProt Q96F46 33-320); assay: multiplexed Luminex binning
T1 construct: also called wild-type IL-17RA-FLAG-polyHis; HuIL-17RA-Flag-pHis
Procedure: Cross-competition studies were performed to determine IL-17RA binding characteristics of exemplary IL-17RA antibodies. […] The method employed the Bio-Plex Workstation and software (BioRad, Hercules, Calif.), as well as reagents from Luminex® Corp. (Austin, Tex.). The manufacturers' basic protocols were followed except where noted below (see www.bio-rad.com and www.luminexcorp.com for details). […] The mouse-anti-human IgG coating was evaluated and the beads quantified by FACS. Each bead code was separately incubated with 10 ul of anti-IL-17RA antibody for 1 hour at room temperature and then washed. The beads were pooled and then dispensed to a 96-well filter plate (Millipore, Billerica, Mass., product #MSBVN1250). […] The PE-tagged monovalent antibody will detect the presence of the second mAb added to the well, but not the first mAb captured by the monovalent mouse-anti-human IgG antibody. Beads were resuspended in 120 ul PBSAT and at least 100 events/bead code were collected on the Bio-Plex workstation as per the manufacturer's recommended protocol.

[1] = biological target: Human IL-17RA full-length expressed on the surface of cells (human, UniProt Q96F46 33-866); assay: cell-based or functional assay
chimera L = biological target: T2, chimera L; assay: Bio-Plex titration on His-captured chimera; bold cell = binding criterion not met
T2 construct: also called Construct L; B+F
Procedure: Twelve bead codes of pentaHis-coated beads (Qiagen, Valencia, Calif.; see www1.qiagen.com) were used to capture histidine-tagged protein. The 12 bead codes allowed the multiplexing of 11 chimeric and the wild type human IL-17RA.
To prepare the beads, 100 ul of wild-type IL-17RA supernatant from transient expression culture and 100 ul of 2.5 ug/ml chimeric protein were bound to penta-His-coated beads overnight at 4° C. or 2 hours at room temperature with vigorous shaking. The beads were washed as per the manufacturer's protocol and the 12 bead set was pooled and aliquoted into 2 or 3 columns of a 96-well filter plate (Millipore, Billerica, Mass., product #MSBVN1250) for duplicate or triplicate assay points, respectively. 100 ul anti-IL-17RA antibodies in 4-fold dilutions were added to the wells, incubated for 1 hour at room temperature, and washed. […] Beads were resuspended in 1% BSA, shaken for 3 minutes, and read on the Bio-Plex workstation. Antibody binding to IL-17RA chimeric protein was compared to antibody binding to the human IL-17RA wild-type from the same pool. A titration of antibody over approximately a 5 log scale was performed. Median Fluorescence Intensity (MFI) of chimeric proteins was graphed as a percent of maximum wild-type human IL-17RA signal.

binding result (huIL-17RA-FLAG-polyHis): binds
B1: AMH7/AML7 (antibody, IgG2, V domains shown)
VH: QVQLVQSGAEVKKPGASVKVSCKASGYTLTRYGISWVRQAPGQGLEWMGWISAYNGNTNYAQKLQGRVTMTTDTSTSTAYMELRSLRSDDTAVYYCARRDYDILTGYYNGFDPWGQGTLVTVSS
VL: DIQMTQSPSSLSASVGDRVTITCRASQGIRNDLGWYQQKPGKAPKRLIYAASSLQSGVPSRFSGSGSGTEFTLTISSLQPEDFATYYCLQHKSYPLTFGGGTKVEIK
notes: human monoclonal antibody from IgG2 XenoMouse mice; also called AM-7

binding result (huIL-17RA-FLAG-polyHis): binds
B2: AMH6/AML6 (antibody, IgG2, V domains shown)
VH: QVQLVQSGAEVKKPGASVKVSCKASGYTLTRYGISWVRQAPGQGLEWMGWISAYNGNTNYAQKLQGRVTMTTDTSTSTAYMELRSLRSDDTAVYYCARRDYDILTGYYNGFDPWGQGTLVTVSS
VL: DIQMTQSPSSLSASVGDRVTITCRASQGIRNDLGWYQQKPGKAPKRLIYAASSLQSGVPSRFSGSGSGTEFTLTISSLQPEDFATYYCLQHKSYPLTFGGGTKVEIK
notes: human monoclonal antibody from IgG2 XenoMouse mice; also called AM-6

binding result (huIL-17RA-FLAG-polyHis): binds
B3: AMH8/AML8 (antibody, IgG2, V domains shown)
VH: QVQLVQSGAEVKKPGASVKVSCKASGNTFTGYGISWVRQAPGQGLEWMGWISAYNGNTNYAQNLQGRVTMTTDTSTSTAYMELRSLRSDDTAVYYCARRDYDILTGYYNGFDPWGQGTLVTVSS
VL: DIQMTQSPSSLSASVGDRVTITCRASQGIRNDLGWYQQKPGKAPKRLIYAASSLQSGVPSRFSGSGSGTEFTLTISSLQPEDFATYYCLQHKSYPLTFGGGTKVEIK
notes: human monoclonal antibody from IgG2 XenoMouse mice; also called AM-8

binding result (huIL-17RA-FLAG-polyHis): binds
B4: AMH4/AML4 (antibody, IgG2, V domains shown)
VH: QVQLVESGGGVVQPGRSLRLSCAASGINFSSYGMHWVRQAPGKGLEWVAVIWYDGSNKHYADSVKGRFTISRDNSKNTLYLQMNSLRAEDTAVYYCARDTGVYWGQGTLVTVSS
VL: not shown
notes: human monoclonal antibody from IgG2 XenoMouse mice; also called AM-4

binding result (huIL-17RA-FLAG-polyHis): binds
B5: AMH10/AML10 (antibody, IgG2, V domains shown)
VH: QVQLQESGPGLVKPSQTLSLTCTVSGGSISSGGYYWSWIRQHPGKGLEWIGYIYFSGSAYYNPSLKSRVAISVDTSKNQFSLKLSSVTAADTAVYYCAREYYDSSGYPDAFDIWGQGTMVTVSS
VL: DIQMTQSPSSVSASVGDRVTITCRASQGIRSWLAWYQQKPGKAPKLLIFAASSLQSGVPSRFSGSGSGTEFTLTISSLQPEDFATYYCQQANNFPRTFGQGTKVEIK
notes: human monoclonal antibody from IgG2 XenoMouse mice; also called AM-10

IL-17A/HFF bioassay IC50; 13. Subclone of (AMH13/AML13) [1]: > 10 nM
B6: AMH13/AML13 (antibody, IgG2, V domains shown)
VH: QVQLVESGGGVVQPGRSLRLSCAASGFTFSSYGMQWVRQAPGKGLEWVAVIWYDGNKKYYADSVKGRFTISRDNSKNTLYLQMNSLRAEDTAVYYCARGRVRDYYYGMDVWGQGTTVTVSS
VL: DIVMTQTPLSLSVTPGQPASIACKSSQSLLHSDGKTYLYWYLQKPGQPPQLLIYEVSTRFSGVPDRFSGSGSGTDFTLKISRVEAEDVGVFYCMQSIQLPLTFGGGTKVEIK

IL-17A/HFF bioassay IC50; 4. Subclone of (AMH21/AML21) [1]: 2.3 nM
IL-17A/HFF bioassay IC50; 5. Subclone of (AMH21/AML21) [1]: 3.1 nM
IL-17A/HFF bioassay IC50; 6. Subclone of (AMH21/AML21) [1]: 3.3 nM
B7: AMH21/AML21 (antibody, IgG2, V domains shown)
VH: EVQLVESGGGSVQPGGSLRLSCAASGFTFSSYSMNWVRQAPGKGLEWVSIISSRSSIIHYADSVKGRFTISRDNAKNSLYLQMNSLRDEDTAVYYCARPKVGGGMDVWGQGTTVTVSS
VL: DIQMTQSPSSLSASVGDRVTITCRASQGISNYLAWYQQKPGKFPELLIYAASTLQSGVPSRFSGSGSGTDFTLTISSLQPEDVATYYCQKYNRAPFTFGPGTKVDIK

IL-17A/HFF bioassay IC50; 7. Subclone of (AMH20/AML20) [1]: 8.1 nM
IL-17A/HFF bioassay IC50; 8. Subclone of (AMH20/AML20) [1]: 6.6 nM
IL-17A/HFF bioassay IC50; 9. Subclone of (AMH20/AML20) [1]: 6.7 nM
B8: AMH20/AML20 (antibody, IgG2, V domains shown)
VH: EVQLVESGGGLVQPGGSLRLSCAASGFTFSSYSMNWVRQAPGKGLEWVSFISARSSTIYYADSVKGRFTISRDNAKNSLYLQMNSLRDEDTAVYYCARPKVGGGMDVWGQGTTVTVSS
VL: DIQMTQSPSSLSASVGDRVTITCRASQGISNYLAWYQQKPGKFPELLIYAASTLQSGVPSRFSGSGSGTDFTLTISSLQPEDVATYYCQKYNRAPFTFGPGTKVDIK

IL-17A/HFF bioassay IC50; 14. Subclone of (AMH18/AML18) [1]: 0.44 nM
IL-17A/HFF bioassay IC50; 15. Subclone of (AMH18/AML18) [1]: 0.4 nM
IL-17A/HFF bioassay IC50; 16. Subclone of (AMH18/AML18) [1]: 0.17 nM
EC50 entry; zero = binding ablated (chimera L): 0 nM
B9: AMH18/AML18 (antibody, IgG2, V domains shown)
VH: QVQLVQSGAEVKKPGASVKVSCKASGYSFTDYYMHWVRQAPGQGLEWMGWMHPNSGGTDLAQRFQGRVTMTRDTSISTAYMELSRLRSDDTAVYYCARGGYCSTLSCSFYWYFDLWGRGTLVTVSS
VL: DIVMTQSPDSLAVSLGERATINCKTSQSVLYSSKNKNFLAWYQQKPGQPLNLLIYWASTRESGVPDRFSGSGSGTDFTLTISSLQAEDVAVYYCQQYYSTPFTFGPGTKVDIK
notes: human monoclonal antibody from IgG2 XenoMouse mice; also called AM-18

IL-17A/HFF bioassay IC50; 21. Subclone of (AMH17/AML17) [1]: 2.5 nM
IL-17A/HFF bioassay IC50; 22. Subclone of (AMH17/AML17) [1]: 5.3 nM
IL-17A/HFF bioassay IC50; 23. Subclone of (AMH17/AML17) [1]: 0.57 nM
B10: AMH17/AML17 (antibody, V domains shown)
VH: QVQLVQSGAEVKKPGAAVKVSCKATGYTLTSYGISWVRQAPGQGLEWMGWISAYSGNTKYAQKLQGRVTMTTDTSTSTAYMELRSLRSDDTAVYYCARKQLVFDYWGQGTLVTVSS
VL: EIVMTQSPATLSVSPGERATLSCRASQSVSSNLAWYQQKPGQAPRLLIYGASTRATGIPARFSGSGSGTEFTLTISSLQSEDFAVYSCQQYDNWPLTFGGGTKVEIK

IL-17A/HFF bioassay IC50; 17. Subclone of (AMH12/AML12) [1]: 3.5 nM
IL-17A/HFF bioassay IC50; 18. Subclone of (AMH12/AML12) [1]: 3.7 nM
IL-17A/HFF bioassay IC50; 20. Subclone of (AMH12/AML12) [1]: 5.5 nM
B11: AMH12/AML12 (antibody, IgG2, V domains shown)
VH: QVQLVQSGAEVKKPGASVKVSCKASGYTLTSYGISWVRQAPGQGLEWMGWISTYKGNTNYAQKLQGRVTMTTDTSTSTAYMELRSLRSDDTAVYYCARKQLVFDYWGQGTLVTVSS
VL: EIVMTQSPATLSVSPGERATLSCRASQSISSSLAWYQQKPGQAPRLLIYGASTRATGIPARFSGSGSGTEFTLTISSLQSENFAVYYCQQYDNWPLTFGGGTKVEIK

IL-17A/HFF bioassay IC50; 24. Subclone of (AMH16/AML16) [1]: 1.6 nM
IL-17A/HFF bioassay IC50; 25. Subclone of (AMH16/AML16) [1]: 2.3 nM
IL-17A/HFF bioassay IC50; 26. Subclone of (AMH16/AML16) [1]: 1.4 nM
B12: AMH16/AML16 (antibody, IgG2, V domains shown)
VH: QVQLVQSGAEVKKPGASVKVSCKASGYTFTSYGISWVRQAPGQGLEWMGWISAYNGNTKYAQKLQGRVTMTTDTSTSTVYMELRSLRSDDTAVYYCARKQLVFDYWGQGTLVTVSS
VL: EIVMTQSPATLSVSPGERATLSCRASQSISTSLAWYQQKPGQAPRLLIYGTSTRATGIPARFSGSGSGTEFTLTISSLQSEDFAVYFCQQYDIWPLTFGGGTKVEIK

IL-17A/HFF bioassay IC50; 10. Subclone of (AMH19/AML19) [1]: 0.22 nM
IL-17A/HFF bioassay IC50; 11. Subclone of (AMH19/AML19) [1]: 1.1 nM
IL-17A/HFF bioassay IC50; 12. Subclone of (AMH19/AML19) [1]: 0.5 nM
B13: AMH19/AML19 (antibody, IgG2, V domains shown)
VH: QVQLVQSGAEVKKPGASVKVSCKASGYTLTSYGISWVRQAPGQGLEWMGWISAYSGNTKYAQKFQGRVTMTTDTSTSTAYMELRSLRSDDTAVYYCARRQLALDYWGQGTLVTVSS
VL: EIVMTQSPATLSVSPGERATLSCRASQSISSNLAWYQQKPGQAPRLLIYGASTRATGIPARFSDNGSGTEFTLTISSLQSEDFAVYFCQQYDTWPLTFGGGTKVEIK
